Measurements from IntAct's records for PubMed 16830178.

B1: ADP-ribosylation factor 3 (Arabidopsis thaliana (Mouse-ear cress)), P40940 (parent)
chain: MGILFTRMFSSVFGNKEARILVLGLDNAGKTTILYRLQMGEVVSTIPTIGFNVETVQYNNIKFQVWDLGGQTSIRPYWRCYFPNTQAVIYVVDSSDTDRIGVAKEEFHAILEEDELKGAVVLIFANKQDLPGALDDAAVTEALELHKIKSRQWAIFKTCAVKGEGLFEGLDWLSNTLKSGSG
partner: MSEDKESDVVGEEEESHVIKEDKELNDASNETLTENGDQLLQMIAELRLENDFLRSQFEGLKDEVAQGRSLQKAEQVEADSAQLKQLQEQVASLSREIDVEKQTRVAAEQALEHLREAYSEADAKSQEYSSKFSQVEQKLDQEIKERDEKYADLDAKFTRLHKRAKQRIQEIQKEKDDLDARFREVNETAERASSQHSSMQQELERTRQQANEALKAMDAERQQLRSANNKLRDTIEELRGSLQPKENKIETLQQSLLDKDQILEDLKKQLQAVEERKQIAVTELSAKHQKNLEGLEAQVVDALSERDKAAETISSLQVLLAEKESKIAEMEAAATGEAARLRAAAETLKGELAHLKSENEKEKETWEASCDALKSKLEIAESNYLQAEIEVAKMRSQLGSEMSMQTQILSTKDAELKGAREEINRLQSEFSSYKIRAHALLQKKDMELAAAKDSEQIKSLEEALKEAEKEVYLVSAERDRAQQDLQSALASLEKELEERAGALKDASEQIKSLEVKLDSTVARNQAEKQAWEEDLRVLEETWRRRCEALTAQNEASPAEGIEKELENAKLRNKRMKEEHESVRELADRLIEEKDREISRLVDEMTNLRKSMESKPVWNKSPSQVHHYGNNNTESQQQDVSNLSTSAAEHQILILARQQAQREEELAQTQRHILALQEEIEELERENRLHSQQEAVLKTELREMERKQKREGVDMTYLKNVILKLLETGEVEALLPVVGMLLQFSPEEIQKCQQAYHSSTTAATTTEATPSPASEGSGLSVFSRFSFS
B2: Protein GRIP (Arabidopsis thaliana (Mouse-ear cress)), Q8S2T0 (parent)
chain: B1 partner
partner: B1 chain

Variants of: B1
Conditions: with grip_arath GRIP, Q8S2T0

Row | effect of a mutation on the interaction | Variant
1 | decreasing interaction | Y81G
2 | decreasing interaction | F51G

Variants of: B1
Conditions: with grip_arath GRIP

Row | effect of a mutation on the interaction | Variant
3 | disrupting interaction | Y81G
4 | disrupting interaction | F51G

Variants of: B2
Conditions: with arf3_arath ARF3, P40940

Row | effect of a mutation on the interaction | Variant
5 | decreasing interaction | Y717A
6 | decreasing interaction | K719A
